Results taken from article PMC6265350.

Columns and labels:
MtrA~P = biological target: T1, MtrA~P (UniProt P9WGM7); experiment: EMSA; conditions: 50 mM Tris-HCl pH 7.5, 50 mM NaCl, 10 mM MgCl2, 10 mM CaCl2, poly dI/dC and sheared salmon sperm DNA (1 ug), 37 C 15 min; 200 fmol DNA, 1-10 uM protein; 5% …
T1 sequence: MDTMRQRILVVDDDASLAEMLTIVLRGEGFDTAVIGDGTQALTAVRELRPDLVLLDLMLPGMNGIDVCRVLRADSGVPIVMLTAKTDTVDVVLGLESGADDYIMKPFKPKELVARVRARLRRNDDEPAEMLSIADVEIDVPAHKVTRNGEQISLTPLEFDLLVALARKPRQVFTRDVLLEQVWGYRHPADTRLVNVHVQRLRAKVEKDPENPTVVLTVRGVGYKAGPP

MtrA (unphosphorylated) = biological target: T2, MtrA (unphosphorylated) (UniProt P9WGM7); experiment: EMSA; conditions: 50 mM Tris-HCl pH 7.5, 50 mM NaCl, 10 mM MgCl2, 10 mM CaCl2, […]
T2 sequence: T1 sequence

Row | Sequence | binding (MtrA~P) | binding (MtrA (unphosphorylated))
1 | CTGTGCAGAGTAGGTGATCGGCGGCCCGACCGCGAGGAGCCGCGCTGTGACTGGCGGGACGAAAGTTACAGATGAAGATATTTGCGTCCGGTGTCGGTGAGCACGCTGCGCAGGATGGTTTCGATGGTGTCGAACTCGGGCTGTCCGCTAATCAGCGGGGGAGCCACCTGGACGACGGGGTCCCCGCGGTCGTCGGTG (double strand) [PdacB1] | binds | –
2 | TCGACTCAGATCTCCTAGGGCTCAACTCGGAGGGACAGCGCAGGTCAACGCCAACGACACCACAAGCATCATTTGCACCGTACGTCACATCTGACGCTATGGAAACGTAAGTCACAAACTGCCCCCGGTACGTGCGACTAATGTGACCCAACGGTGACCTCGCGCGTTTGCCGCAAACAACCGCCCGGTTAGCGCGGCAA (double strand) [PripA] | binds | binds
